Experimental data taken from patent publication US20250163162A1 (SYNTHEKINE, published 2025).

T1: hIL2Rg-Fc (SinoBiological cat#10555) (human, UniProt P31785 23-254, limits assumed)
T1 construct: Bought Fc fusion (SinoBiological cat#10555); P31785 is printed for hCD132 in the background; also called human IL2Rg-Fc; not shown: Fc of the bought fusion protein
T1 sequence (looked up): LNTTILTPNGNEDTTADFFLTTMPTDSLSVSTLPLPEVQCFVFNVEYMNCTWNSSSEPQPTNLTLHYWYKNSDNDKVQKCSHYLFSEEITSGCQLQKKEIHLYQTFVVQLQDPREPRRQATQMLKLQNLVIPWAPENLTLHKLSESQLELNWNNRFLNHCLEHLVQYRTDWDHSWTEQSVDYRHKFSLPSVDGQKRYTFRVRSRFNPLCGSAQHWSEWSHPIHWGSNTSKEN

T2: cIL2Rg-Fc (lot#P210115SV5) (cynomolgus, UniProt A0A2K5VGJ6 23-262)
T2 construct: Named only by lot number; also called cynomolgus IL2Rg-Fc; not shown: Fc of the fusion protein
T2 sequence: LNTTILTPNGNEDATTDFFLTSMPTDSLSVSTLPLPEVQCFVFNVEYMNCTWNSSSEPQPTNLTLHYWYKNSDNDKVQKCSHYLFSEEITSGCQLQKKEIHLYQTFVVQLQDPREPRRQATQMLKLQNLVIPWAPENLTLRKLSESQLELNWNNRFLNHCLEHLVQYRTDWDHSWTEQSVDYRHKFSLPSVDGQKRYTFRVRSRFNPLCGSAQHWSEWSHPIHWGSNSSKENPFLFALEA

B1: DR474(DR241-DR234) (bispecific antibody)
chain: QVQLQESGGGSVQAGGSLRLSCAASGYSNCSYDMTWYRQAPGKEREFVSAIHSDGSTRYADSVKGRFFISQDNAKNTVYLQMNSLKPEDTAMYYCKTDPLHCRAHGGSWYSVRANYWGQGTQVTVSSGGGSQVQLQESGGGSVQAGGSLRLSCVASGYTFSSYCMGWFRQAPGKEREGVAALGGGSTYYADSVKGRFTISQDNAKNTLYLQMNSLKPEDTAMYYCAAAWVACLEFGGSWYDLARYKHWGQGTQVTVSSASHHHHHH
notes: Anti-hIL10Ra/hIL2Rg dual VHH with ASH6 handle; also called H9
B2: DR395(DR229-DR239) (bispecific antibody)
chain: QVQLQESGGGLVQPGGSLRLSCTASGFSFSSYPMTWARQAPGKGLEWVSTIASDGGSTAYAASVEGRFTISRDNAKSTLYLQLNSLKTEDTAMYYCTKGYGDGTPAPGQGTQVTVSSGGGSQVQLQESGGGSVQAGGSLRLSCTVSGYTYSSNCMGWFRQAPGKEREGVATIYTGGGNTYYADSVKGRFTISQDNAKNTVYLQMNNLKPEDTAMYYCAAEPLSRVYGGSCPTPTFDYWGQGTQVTVSSASHHHHHH
notes: Anti-hIL10Ra/hIL2Rg dual VHH with ASH6 handle; also called A2
B3: DR438(DR235-DR234) (bispecific antibody)
chain: QVQLQESGGGSVQAGGSLRLSCAASRYLYSIDYMAWFRQSPGKEREPVAVIYTASGATFYPDSVKGRFTISQDNAKMTVYLQMNSLKSEDTAMYYCAAVRKTDSYLFDAQSFTYWGQGTQVTVSSGGGSQVQLQESGGGSVQAGGSLRLSCVASGYTFSSYCMGWFRQAPGKEREGVAALGGGSTYYADSVKGRFTISQDNAKNTLYLQMNSLKPEDTAMYYCAAAWVACLEFGGSWYDLARYKHWGQGTQVTVSSASHHHHHH
notes: Anti-hIL10Ra/hIL2Rg dual VHH with ASH6 handle; also called D12
B4: DR468(DR240-DR234) (bispecific antibody)
chain: QVQLQESGGGSVQAGGSLRLSCGASGYTYSSYCMGWFRQVPGKEREGVAVIDSDGSTSYADSVKGRFTISKDNGKNTLYLQMNSLKPEDTAMYYCAADLGHYRPPCGVLYLGMDYWGKGTQVTVSSGGGSQVQLQESGGGSVQAGGSLRLSCVASGYTFSSYCMGWFRQAPGKEREGVAALGGGSTYYADSVKGRFTISQDNAKNTLYLQMNSLKPEDTAMYYCAAAWVACLEFGGSWYDLARYKHWGQGTQVTVSSASHHHHHH
notes: Anti-hIL10Ra/hIL2Rg dual VHH with ASH6 handle; also called G8
B5: DR392(DR229-DR236) (bispecific antibody)
chain: QVQLQESGGGLVQPGGSLRLSCTASGFSFSSYPMTWARQAPGKGLEWVSTIASDGGSTAYAASVEGRFTISRDNAKSTLYLQLNSLKTEDTAMYYCTKGYGDGTPAPGQGTQVTVSSGGGSQVQLQESGGGSVQAGGSLRLSCAASRFTYSSYCMGWFRQAPGKEREGVASIDSDGSTSYTDSVKGRFTISKDNAKNTLYLQMNSLKPEDTAMYYCALDLMSTVVPGFCGFLLSAGMDYWGKGTQVTVSSASHHHHHH
notes: Anti-hIL10Ra/hIL2Rg dual VHH with ASH6 handle; also called A7
B6: DR441(DR236-DR231) (bispecific antibody)
chain: QVQLQESGGGSVQAGGSLRLSCAASRFTYSSYCMGWFRQAPGKEREGVASIDSDGSTSYTDSVKGRFTISKDNAKNTLYLQMNSLKPEDTAMYYCALDLMSTVVPGFCGFLLSAGMDYWGKGTQVTVSSGGGSQVQLQESGGGSVQAGGSLRLSCTASGFTFDDREMNWYRQAPGNECELVSTISSDGSTYYADSVKGRFTISQDNAKNTVYLQMDSVKPEDTAVYYCAADFMIAIQAPGAGCWGQGTQVTVSSASHHHHHH
notes: Anti-hIL10Ra/hIL2Rg dual VHH with ASH6 handle; also called F1
B7: DR437(DR235-DR233) (bispecific antibody)
chain: QVQLQESGGGSVQAGGSLRLSCAASRYLYSIDYMAWFRQSPGKEREPVAVIYTASGATFYPDSVKGRFTISQDNAKMTVYLQMNSLKSEDTAMYYCAAVRKTDSYLFDAQSFTYWGQGTQVTVSSGGGSQVQLQESGGGSVQAGGSLRLSCTASGFTFDDSDMGWYRQAPGNECELVSTISSDGSTYYADSVKGRFTISQDNAKNTVYLQMNSLKPEDTAVYYCAAEPRGYYSNYGGRRECNYWGQGTQVTVSSASHHHHHH
notes: Anti-hIL10Ra/hIL2Rg dual VHH with ASH6 handle; also called D6
B8: DR444(DR236-DR234) (bispecific antibody)
chain: QVQLQESGGGSVQAGGSLRLSCAASRFTYSSYCMGWFRQAPGKEREGVASIDSDGSTSYTDSVKGRFTISKDNAKNTLYLQMNSLKPEDTAMYYCALDLMSTVVPGFCGFLLSAGMDYWGKGTQVTVSSGGGSQVQLQESGGGSVQAGGSLRLSCVASGYTFSSYCMGWFRQAPGKEREGVAALGGGSTYYADSVKGRFTISQDNAKNTLYLQMNSLKPEDTAMYYCAAAWVACLEFGGSWYDLARYKHWGQGTQVTVSSASHHHHHH
notes: Anti-hIL10Ra/hIL2Rg dual VHH with ASH6 handle; also called E8
B9: DR466(DR240-DR232) (bispecific antibody)
chain: QVQLQESGGGSVQAGGSLRLSCGASGYTYSSYCMGWFRQVPGKEREGVAVIDSDGSTSYADSVKGRFTISKDNGKNTLYLQMNSLKPEDTAMYYCAADLGHYRPPCGVLYLGMDYWGKGTQVTVSSGGGSQVQLQESGGGSVQAGGSLRLSCVASGYTSCMGWFRQAPGKEREAVATIYTRGRSIYYADSVKGRFTISQDNAKNTLYLQMNSLKPEDIAMYSCAAGGYSWSAGCEFNYWGQGTQVTVSSASHHHHHH
notes: Anti-hIL10Ra/hIL2Rg dual VHH with ASH6 handle; also called H7
B10: DR465(DR240-DR231) (bispecific antibody)
chain: QVQLQESGGGSVQAGGSLRLSCGASGYTYSSYCMGWFRQVPGKEREGVAVIDSDGSTSYADSVKGRFTISKDNGKNTLYLQMNSLKPEDTAMYYCAADLGHYRPPCGVLYLGMDYWGKGTQVTVSSGGGSQVQLQESGGGSVQAGGSLRLSCTASGFTFDDREMNWYRQAPGNECELVSTISSDGSTYYADSVKGRFTISQDNAKNTVYLQMDSVKPEDTAVYYCAADFMIAIQAPGAGCWGQGTQVTVSSASHHHHHH
notes: Anti-hIL10Ra/hIL2Rg dual VHH with ASH6 handle; also called H1
B11: DR449(DR237-DR233) (bispecific antibody)
chain: QVQLQESGGGSVQAGGSLRLSCAASGYTYSMYCMGWFRQAPGKEREGVAQINSDGSTSYADSVKGRFTISKDNAKNTLYLQMNSLKPEDTAMYYCAADSRVYGGSWYERLCGPYTYEYNYWGQGTQVTVSSGGGSQVQLQESGGGSVQAGGSLRLSCTASGFTFDDSDMGWYRQAPGNECELVSTISSDGSTYYADSVKGRFTISQDNAKNTVYLQMNSLKPEDTAVYYCAAEPRGYYSNYGGRRECNYWGQGTQVTVSSASHHHHHH
notes: Anti-hIL10Ra/hIL2Rg dual VHH with ASH6 handle; also called F3

Target: T1, hIL2Rg-Fc (SinoBiological cat#10555)
Experiment: SPR (Biacore T200); ratio experimental/calculated Rmax

Binder	Surface Activity [%]
B1	6
B2	5
B3	5
B4	6
B5	4
B6	4
B7	3
B8	5
B9	6
B10	4
B11	2

Target: T2, cIL2Rg-Fc (lot#P210115SV5)
Experiment: as above

Binder	Surface Activity [%]
B1	2
B2	2
B3	1
B4	1
B5	1
B6	1
B7	1
B8	2
B9	9
B10	1
B11	1

Target: T1, hIL2Rg-Fc (SinoBiological cat#10555)
Experiment: SPR (Biacore T200), Fc-fused ligand captured on chip, dual VHH as analyte, 1:1 Langmuir fit
Description: (§1) All experiments were conducted in 10 mM Hepes, 150 mM NaCl, 0.05% (v/v) Polysorbate 20 (PS20) and 3 mM EDTA (HBS-EP+ buffer) on a Biacore T200 instrument equipped with Protein A or CAP biotin chips (Cytiva). For experiments on Protein A chips, Fc-fused ligands were flowed at 5 μl/min for variable time ranging from 18 to 300 seconds, reaching the capture loads listed in the tables below. Following ligand capture, injections of a 2-fold dilution series of analyte typically comprising at least five concentrations between 1 μM and 1 nM were performed in either high performance or single cycle kinetics mode. Surface regeneration was achieved by flowing 10 mM glycine-HCl, pH 1.5 (60 seconds, […]). Buffer-subtracted sensograms were processed with Biacore T200 Evaluation Software and globally fit with a 1:1 Langmuir binding model (bulk shift set to zero) to extract kinetics and affinity constants (kₐ, kd, KD). RMAX<100 RU indicates surface density compatible with kinetics analysis. Experiments on CAP chips were performed as described above with an additional capture step of Biotin CAPture reagent (10 seconds, 40 uL/min) performed prior to capture of biotinylated ligands. Calculated Rmax were generated using the equation Rmax=Load (RU) x valency of ligand x (Molecular weight of analyte/Molecular weight of ligand. Surface activity was defined as the ratio experimental/calculated Rmax. The results of these experiments are provided in below for sample information and experimental results.

Binder	Kd [nM]	koff [s⁻¹]	kon [M⁻¹ s⁻¹]
B1	3.2	0.00099	310000
B2	3.9	0.0078	2e+06
B3	2.7	0.001	390000
B4	8.5	0.0015	170000
B5	3.6	0.0062	1.7e+06
B6	11.1	0.0053	470000
B7	27.5	0.0051	190000
B8	6.9	0.0026	380000
B9	20.8	0.026	1.2e+06
B10	14.5	0.0037	250000
B11	30.4	0.0065	220000

Target: T2, cIL2Rg-Fc (lot#P210115SV5)
Experiment: as above
Description: as §1

Binder	Kd [nM]	koff [s⁻¹]	kon [M⁻¹ s⁻¹]
B1	2.9	0.00093	330000
B2	3.2	0.0026	800000
B3	2.2	0.0012	560000
B4	4.3	0.001	240000
B5	2.4	0.004	1.6e+06
B6	8.3	0.0028	340000
B7	7.8	0.0022	290000
B8	5.3	0.00077	150000
B9	49.9	0.0037	75000
B10	3.2	0.0022	700000
B11	22.6	0.0048	210000
